Source: patent publication US20160159927A1

What was measured:
[1] = target: PD1 (over-expressed on cells); experiment: cell-cell conjugation: dye-labelled A20-PD-L1 and A20-PD1 cells mixed, double-positive events read by flow cytometry (positive control)
[2] = target: VSIG8 (over-expressed on cells; species not stated) (Homo sapiens (Human)) (UniProt P0DPA2); experiment: cell-cell conjugation: dye-labelled A20-VISTA and A20-VSIG8 cells mixed, double-positive events read by flow cytometry
[3] = target: VSIG8 (over-expressed on cells; species not stated) (Homo sapiens (Human)) (UniProt P0DPA2); experiment: cell-cell conjugation: two differently dye-labelled lots of A20-VSIG8 cells mixed, double-positive events read by flow cytometry (negative control)

PD-L1 (over-expressed on A20 cells) (ligand)
Q2 (percent double-positive, conjugated cells) [1]: 28

VISTA (over-expressed on A20 cells; species not stated) (from UniProt Q9H7M9 33-311) (ligand)
Q2 (percent double-positive, conjugated cells) [2]: 11.4

VSIG8 (over-expressed on cells; species not stated) (from UniProt P0DPA2 22-414) (receptor)
Q2 (percent double-positive, conjugated cells) [3]: 3.92
